Results on one molecule are retold here after publication doi:10.1101/2020.12.03.409995, “Wild-type sTREM2 blocks Aβ aggregation and neurotoxicity, while the Alzheimer’s R47H mutant does the opposite” (bioRxiv, 2020).

In the experiment the target is T1, HiLyte Fluor 488-labelled Aβ42 oligomers (human, UniProt P05067 672-713, HiLyte Fluor 488 label (position not given)).
T1 construct: amyloid beta-peptide 1-42 (Aβ42), human, the cut product of the amyloid precursor protein; Oligomeric species in the 6 hour aggregation mixture, told from monomers by photobleaching; also called Aβ oligomers; oligomeric Aβ; source: synthetic peptide, bought: AnaSpec; aggregated at 0.5 μM in PBS pH 7.4 for 6 hours
As to the kind of experiment: single-molecule TIRF two-colour coincidence detection; HiLyte Fluor 488 Aβ42 aggregated 6 hours at 0.5 μM in PBS pH 7.4, dye-labelled sTREM2 added and imaged on slides; monomers told from oligomers by photobleaching; chance coincidence subtracted. The settings on record: both partners purified.

B1: dye-labelled wild-type sTREM2 (TREM2 ectodomain) for single-molecule TIRF (domain or fragment, UniProt Q9NZC2 19-143, looked up)
chain: HNTTVFQGVAGQSLQVSCPYDSMKHWGRRKAWCRQLGEKGPCQRVVSTHNLWLLSFLRRWNGSTAITDDTLGGTLTITLRNLQPHDAGLYQCQSLHGSEADTLRKVLVEVLADPLDHRDAGDLWF
modifications: fluorescent dye label: TAMRA in the results, AF647 in the methods (position not given)
notes: TREM2 residues 19-143, wild type; The labelled form of m10; also called TAMRA-dye labelled sTREM2; AF647-TREM2; source: Freestyle 293-F cells, transfected (pHLSec), purified from conditioned medium (IMAC, gel filtration), dye-labelled
As to B1, the binding result is listed as “binds”.
